Experimental data reported in US12460006B2, “Antibodies against integrin alpha 11 beta 1” (Momenta Pharmaceuticals, Inc., priority 2019, dated 2025).

T1: α11β1 I Domain (Homo sapiens, UniProt Q9UKX5)
T1 sequence (Q9UKX5 164-345 limits assumed): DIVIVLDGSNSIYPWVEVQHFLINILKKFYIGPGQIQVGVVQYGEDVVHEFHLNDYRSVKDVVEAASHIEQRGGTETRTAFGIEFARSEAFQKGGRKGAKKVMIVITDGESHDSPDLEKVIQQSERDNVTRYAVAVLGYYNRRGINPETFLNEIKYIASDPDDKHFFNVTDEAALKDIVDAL


Columns and labels:
[1] = tested on: A549 cells; assay: Tumor xenograft model; type: in vivo, C.B-17 SCID mice; conditions: for Days to Volume Doubling (ave, 95% CI): intraperitoneal every 3 days, 7 doses; for inhibition of tumor growth compared to isotype control: A549 xenograft, SCID mice
Protocol: Fifty-six female C.B-17 SCID mice were inoculated with A549 cells (5×10^6 cells/mouse) subcutaneously in the flank. Once tumor volume reached ˜100 mm^3, animals were randomized amongst 7 groups of 8 mice each. Mice were then treated intraperitonealy every 3 days for a total of 7 doses with isotype controls or novel mAbs 79E3E3, 16E10 and 9G04 (2 and 20 mg/kg) or with docetaxel at 10 mg/kg every 4 days for a total of 6 doses. Tumor volumes and body weights were recorded twice a week with a gap of 2-3 days in between two measurements until any of the following conditions defined were observed: loss of 20% or more body weight; tumors that inhibit normal physiological function such as eating, drinking, and mobility; ulcerated tumors; tumor size greater than 2000 mm^3 and clinical observations of prostration, paralysis, seizures and hemorrhages.
In this example, studies were performed to determine if inhibition of α11β1 function with mAb results in xenograft growth inhibition. As shown in FIG. 16 and Table 4, blocking α11β1 on mouse CAFs impeded xenograft growth in SCID mice.

[2] = tested on: CHO cell lines expressing α11; assay: Collagen gel contraction assay; type: cell-based, human; conditions: for Inhibition of CHO-K1 gel contraction: Yes/No; for inhibition of CHO-hu α11-mediated collagen gel contraction: vs untreated
Protocol: 24-well plates were blocked with 2% BSA in PBS overnight at 37° C. The following day, the plates were washed 3 times with PBS before being used in the assay. Human CHO cell lines expressing α11 were harvested and resuspended at 1.25×10^6 in ExpiCHO Expression Medium (Gibco™ Cat #A2910002). The collagen gel solution was prepared by diluting 3 mg/mL stock collagen type I (Gibco™ Collagen I Rat Protein, Tail Cat #A1048301) to 1 mg/mL in the media containing the CHO cells. Sodium hydroxide was added to the solution to neutralize the pH and 400 μL of the collagen solution was added to each well of the 24-well plates. For the wells where the antibodies were included in the collagen gel solution, CHO cells were prepared at 2.5×10^6 and the antibodies were prepared at 2× final concentration in ExpiCHO media. The cells and antibodies were then combined 1:1 before the addition of the stock collagen type 1. The gels were allowed to polymerize for 60 minutes at 37° C. Antibodies were added to the ExpiCHO media, which was then layered on top of the polymerized gel (400 μL/well). The gels were incubated for 6 days at 37° C. before gel contraction was quantified. Images of each well were analyzed using Image J and gel contraction was determined as a percentage of the initial gel area.
Selected exemplary antibodies were tested for the ability to inhibit cell-mediated 3D gel contraction because this ability is directly linked to the functionality of the exemplary antibodies.

[3] = molecular target: T1, α11β1 I Domain; assay: SPR binding to α11β1 I Domain; conditions: SPR data
Protocol: (§1) The affinity of antibodies for human α11β1 was measured by surface plasmon resonance assay (SPR). Affinity was measured at pH 7.6 and 25° C. with a Biacore T200 instrument. Anti-HIS antibody was immobilized on the SPR sensor surface using EDC/NHS covalent attachment. HIS-tagged human α11β1 was captured on the sensor surface and a single-cycle kinetics assay was used. Increasing concentrations of test antibody were injected in series over the sensor-bound α11β1. Dissociation was monitored for 1000 seconds. A sensor surface with only anti-HIS antibody and a series of blank injections were used to double-reference subtract the data. A 1:1 Langmuir model was fit to the data to estimate the kinetic association and dissociation constants. The affinity (equilibrium dissociation constant) of the interaction was calculated by dividing the kinetic dissociation constant by the kinetic association constant. Between injection cycles α11β1 and bound antibody were removed with an injection of 10 mM glycine at pH 1.5.
(§2) The binding affinity of antibodies for the α11β1 Headpiece and α11β1 I Domain as measured by SPR is shown in FIG. 10A and FIG. 10B, respectively.

[4] = tested on: α11β1 Headpiece; assay: SPR binding to α11β1 Headpiece; design: species or system human; conditions: SPR data
Protocol: as §1, §2

Row | binding to the I domain of α11β1 [3] | binding to the headpiece domain of α11β1 [4] | Molecule | Days to Volume Doubling (ave, 95% CI) ([1]; 2mpk) | Days to Volume Doubling (ave, 95% CI) ([1]; 20mpk) | inhibition of tumor growth compared to isotype control [1] | Inhibition of CHO-K1 gel contraction [2] | inhibition of CHO-hu α11-mediated collagen gel contraction [2]
1 | do bind | – | 79E3E3: rat anti-α11β1 mAb; VH SEQ ID NO: 145, VL SEQ ID NO: 146 (antibody, V domains shown) VH: MDWLWNLLFLMVVAQSAQAQIQLVQSGPEVKKPGESVKISCKASGYTFTDYAMNWVKQAPGNGLKWMGWINTQTGKPTYADDFKQRFVFSLETSARTTYLQINNLNIEDTATYFCTRLGTGNTKGFAYWGQGTLVTVSS VL: MESQTHVLISLLLCVSGTCGDILINQSPASLTVSAGERVTMSCKSSQSLLYSENNQDYLAWYQQKPGQFPKLLIYGASNRHTGVPDRFTGSGSGTDFTLTISSVQAEDLADYYCEQTYRYPFTFGSGTKLEIK | 8.5 (8.0, 9.0) Days | 8.5 (8.0, 9.0) Days | significantly inhibited tumor growth | Yes | inhibited CHO-hu α11-mediated collagen gel contraction
2 | do bind | – | 9-G05: mouse anti-α11β1 mAb; VH SEQ ID NO: 103, VL SEQ ID NO: 104 (antibody, V domains shown) VH: EVQLQQSGPELVKPGASVKIPCKASGYTFPDYNMDWVKQSHGKSLEWIGYINPDNGGTIYNQKFKGKATLTVDKSSSTAYMELRSLTSEDTAVYYCARLDSSGYGYYAMDYWGQGTSVTVSS VL: DIVLTQSPASLAVSLGQRATISCRASESVDNYGISFMHWYQQKPGQPPKLLIYRASNLDSEIPARFSGSGSRTDFTLTIDPVETDDVATYYCQQSYKDPRTFGGGTKLEIK | – | – | – | Yes | inhibited CHO-hu α11-mediated collagen gel contraction
3 | – | – | 24E4G6: rat anti-α11β1 mAb; VH SEQ ID NO: 147, VL SEQ ID NO: 148 (antibody, V domains shown) VH: MELELSLIFIFSLLKDVQCEVQLVESGGSLVQPGGSLKLSCVASGYTFSNYWMDWVRQSPGKSLEWIGEINTDGRRTNYAPSIKDRFTISRDNAKSTLYLQMSNVKSDDTAIYYCTILRVYPHYFDYWGQGVMVTVSS VL: MMSPAQFLFLLMLWIQEARGDVVMTQTPPSLSVAIGQSVSISCKSSQSLVYSDGETYLHWFLQSPGRSPKRLIYHVSNLGSGVPDRFSGTGSLTDFTLRISRVEAEDLGVYYCAQTTHFPPTFGAGTKLELK | – | – | – | Yes | –
4 | – | – | 8-I14: mouse anti-α11β1 mAb; VH SEQ ID NO: 109, VL SEQ ID NO: 110 (antibody, V domains shown) VH: EVQLQQSGPELVKPGASVKKSCKASGYTFTDYYMHWVKQKPGQGLEWIGKIYPGSGNTHYNEKFKGKATLTADKSSSTAYMQLSSLTSEDSAVYFCATNYYGYRAMNYWGQGSSVTVSS VL: DIHLTQSPSSLSASLGERISLTCRASQDIYISLNWFQQKPDGTIKLLIYGTSSLDSGVPKRFSGSRSGSDYSLTISSLESEDFADYYCLQYASSPYTFGGGTKLEIK | – | – | – | No | inhibited CHO-hu α11-mediated collagen gel contraction
5 | – | – | 16G7: rabbit anti-α11β1 mAb; heavy chain SEQ ID NO: 159, light chain SEQ ID NO: 160 (antibody) heavy: METGLRWLLLVAVFKGVQCQEQLVESGGDLVKPGASLTLTCTASGFSFNKNYWMCWVRQAPGKGLEWIGCIYNGDGNTYYASWVNGRFTISKTSSTTVTLQMTSLTVADTAIYFCARLLNMWGPGTLVTVSSGQPKAPSVFPLAPCCGDTPSSTVTLGCLVKGYLPEPVTVTWNSGTLTNGVRTFPSVRQSSGLYSLSSVVSVTSSSQPVTCNVAHPATNTKVDKTVAPSTCSKPMCPPPELPGGPSVFIFPPKPKDTLMISRTPEVTCVVVDVSQDDPEVQFTWYINNEQVRTARPPLREQQFNSTIRVVSTLPIAHQDWLRGKEFKCKVHNKALPAPIEKTISKARGQPLEPKVYTMGPPREELSSRSVSLTCMINGFYPSDISVEWEKNGKAEDNYKTTPTVLDSDGSYFLYSKLSVPTSEWQRGDVFTCSVMHEALHNHYTQKSISRSPGK light: MDTRAPTQLLGLLLLWLPGARCADIVMTQTPASVEAAVGGTVTIKCQASESIGNALAWYQQKPGQPPKLLIYTAATLASGVPSRFSGSGSGTEFTLTISGVQCDDAATYYCQSYYFTSVSSYGNAFGGGTEVVVKGDPVAPTVLIFPPAADQVATGTVTIVCVANKYFPDVTVTWEVDGTTQTTGIENSKTPQNSADCTYNLSSTLTLTSTQYNSHKEYTCKVTQGTTSVVQSFNRGDC | – | – | – | No | –
6 | – | – | 9-E16: mouse anti-α11β1 mAb; VH SEQ ID NO: 111, VL SEQ ID NO: 112 (antibody, V domains shown) VH: EVQLQQSGPELVKPGASVKISCKASGYTFTDYYMHWVKQKPGQGLEWIGEIYPGSGNPYYNEKFKGKATLTADKSSSSAYMQLSSLTSEDSAVYFCARTSYGRVGTGFAYWGQGTLVTVSA VL: NFVMTQTPLSLPVSLGDQASISCRSSQSLLHSNGNTYLHWYLQKPGQSPKLLIYKVSNRFSGVPDRFSGSGSGTDFTLKINRVETEDLGIYFCSQSSHVPTFGAGTKLELK | – | – | – | – | inhibited CHO-hu α11-mediated collagen gel contraction
7 | do not bind | do not bind | 16E10: rabbit anti-α11β1 mAb; heavy chain SEQ ID NO: 161, light chain SEQ ID NO: 162 (antibody) heavy: METGLRWLLLVAVLKGVQCQSLEESGGDLVKPGASLTLTCRVSGFSFSSSYYMCWVRQAPGKGLEWIACIGTTRGSTYYATWAKGRFTISKISSTTVTLQMTSLTDADTATYFCARDATGYRINTIGLYFNLWGPGTLVTVSSGQPKAPSVFPLAPCCGDTPSSTVTLGCLVKGYLPEPVTVTWNSGTLTNGVRTFPSVRQSSGLYSLSSVVSVTSSSQPVTCNVAHPATNTKVDKTVAPSTCSKPMCPPPELPGGPSVFIFPPKPKDTLMISRTPEVTCVVVDVSQDDPEVQFTWYINNEQVRTARPPLREQQFNSTIRVVSTLPIAHQDWLRGKEFKCKVHNKALPAPIEKTISKARGQPLEPKVYTMGPPREELSSRSVSLTCMINGFYPSDISVEWEKNGKAEDNYKTTPTVLDSDGSYFLYSKLSVPTSEWQRGDVFTCSVMHEALHNHYTQKSISRSPGK light: MDTRAPTQLLGLLLLWLPGARCAFELTQTPSSVEAAVGGTPTIKCQASQTIYSYLSWYQQKPGQPPKLLIYEASKLASGVPSRFSGSGSGTDYTLTISDLECADAATYYCQSYHGTASTEYNTFGGGTEVVVRGDPVAPTVLIFPPAADQVATGTVTIVCVANKYFPDVTVTWEVDGTTQTTGIENSKTPQNSADCTYNLSSTLTLTSTQYNSHKEYTCKVTQGTTSVVQSFNRGDC | 7.9 (7.5, 8.3) Days | 7.9 (7.5, 8.3) Days | no significant inhibition of tumor growth | Yes | inhibited CHO-hu α11-mediated collagen gel contraction
8 | – | – | 9-B11: mouse anti-α11β1 mAb; VH SEQ ID NO: 115, VL SEQ ID NO: 116 (antibody, V domains shown) VH: QVQLQQPGAELVRPGTSVKLSCKASGYTFTSYWMHWVQQRPGQGLEWIGVIDPSDSYTNYNQKFKGKATLTVDTSSSSAYMQLSSLTSEDSAVYYCARDDVAMDYWGQGTSVTVSS VL: DIVVTQSPASLAVSLGQRATISCRASESVDSYGNSFIHWYQQKPGQPPKLLIYRASNLKSGIPARFSGSGSRTDFTLTINPVEADDVATYYCQQSNEDPYTFGGGTKLEIK | – | – | – | No | –
